US20110217305A1 (SYMPHOGEN A S, published 2011)

Target: T1, Fc-conjugated HER2 (HER2-Fc), R&D Systems cat. No 1129-ER (human, UniProt P04626 23-652)
T1 construct: Bought reagent; Captured on an anti-Fc surface in the SPR binning; also called rhHER2; HER2 protein (R&D Systems cat.#1129-ER); not shown: Fc part of the bought fusion protein
Test: SPR epitope binning (ProteOn XPR36), HER2-Fc captured via anti-Fc; competitor 4387; class limits for the pair

% inhibition: 25 to 50%
B1: antibody 4382 (antibody, human IgG1, kappa, V domains shown)
VH: EVQLQQSGPELVKPGASVKISCTASGYTFTDYYMNWVKQSHGKSLEWIGDINPNNGGTNYNQKWKGKATLTIHKSSSTAYMELRSLTSEDSAVYFCVPGGLRSYFDYWGQGTTLTVSS
VL: DIVMTQSLKFMSASVGDRVSITCKASQDVSAAVAWYQQKPGQSPELLIYWASTRHTGVPDRFTGSGSGTDYTLTISSVQAEDLALYYCQQHYTTPPTFGGGTKLEIKR
notes: Chimeric murine/human IgG1 kappa
